According to the supplement of paper PMC9170038:

Tested on: MS2 coat protein
Assay: apparent KD of MS2 coat protein; designed switch direction (-1 OFF switch, 1 ON switch): -1; higher = weaker reporter binding
Procedure, shortened: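 Designed RNA switches with common flanks were made on Illumina chips by stalled E. coli RNA polymerase. Titration with SNAP-549-labelled MS2 coat protein doubled from 0.7 or 1.5 nM up to 3 µM. Apparent KD is each design's median over clusters after curve-fitting normalised fluorescence.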

[1] = Eterna round: R95, input ligand: microRNA oligo, concentration not stated
[2] = Eterna round: R95, input ligand: FMN 200 uM
[3] = Eterna round: R95, input ligand: none
[4] = input ligand: microRNA oligo, concentration not stated

GUGCAAUGAGGAUAUACGUAGGUGAAAAUCUGUGUGCUCCUACAUGAGGAUCACCCAUGUAGAAGGCAUGUCAC [LRO-Excl2-16] (puzzle: Exclusion 2)
apparent KD of MS2 coat protein [1]: 16 nM

UUUUAACAAGCGAGAUCCUACAUGAGGAUCACCCAUGUAUGUCAUGGUUUCCAUGGUCUUUUUGCUCGUCUUGUGUG [jl TITIN mod 7] (Eterna round: R97, puzzle: Sensor, turn-off variant 1)
apparent KD of MS2 coat protein (input ligand: FMN 200 uM): 40.9 nM | apparent KD of MS2 coat protein (input ligand: none): 44.1 nM

AGUACUAACACGUCAGUGUUAGUACAAUAAGCUUGUGAAACAUGAGGAUCACCCAUGUCCUCAUAAGCUCGUCUUAU [salish99_TOv2_r3_062] (puzzle: Sensor v3, turn-off variant 2)
apparent KD of MS2 coat protein [2]: 17.3 nM | apparent KD of MS2 coat protein [1]: 602 nM | apparent KD of MS2 coat protein [3]: 16.1 nM

AAAAAGCGAGGAUAUACAGGAAAAGAAAAGAAAAGAAAAGCACAUGAGGAUCACCCAUGUAGAAGGCGCGAAAA [Exclusion 2 #3] (puzzle: Exclusion 2)
apparent KD of MS2 coat protein [2]: 26.1 nM | apparent KD of MS2 coat protein [1]: 24.7 nM | apparent KD of MS2 coat protein [3]: 20.8 nM

GGCUAGUCAGGAUAUACGAACAUGUCAAAAGACGUGAAGGGACAUGAGGAUCACCCAUGUAGAAGGGACUAGCG [salish99_ex2_r3_002] (puzzle: Exclusion 2)
apparent KD of MS2 coat protein [1]: 25 nM

CUUUUGUGAGGAUAUCUGUAGUAAAAAAAUAAAAUUACUACUGAGAAGGCACAUGAGGAUCACCCAUGUUCCUC [salish99_ex4_r3_035] (puzzle: Exclusion 4)
apparent KD of MS2 coat protein [1]: 34 nM

UUUUAACAUGAGGAUCACCCAUGUGAGGAUAUCGAAAUUUAUAUUAAUAUUUUUAAAUCGAGAAGGCACAUUUU [JMF 68] (puzzle: Exclusion 1)
apparent KD of MS2 coat protein [1]: 98.9 nM

CUGAGUCUAGGAUAUACAUGAGGAUCACCCAUGUAAAGUAGCUUGCGUACAGGCAGAUGUAGAAGGAGAUUCGG [Mod of JL 10 - Jieux - Exclusion 3] (Eterna round: R97, puzzle: Exclusion 3)
apparent KD of MS2 coat protein (input ligand: FMN 200 uM): 33.2 nM | apparent KD of MS2 coat protein (input ligand: none): 24.6 nM

UGCAGUGAUCCAGAAUGUUACAUGAGGAUCACCCAUGUUAGUAUUGUUUAGUUGUAUAAGUUUGUUGUUCGUUUUAU [JR_STOV1_v2_Sub079] (Eterna round: R97, puzzle: Sensor, turn-off variant 1)
apparent KD of MS2 coat protein (input ligand: FMN 200 uM): 68.8 nM | apparent KD of MS2 coat protein (input ligand: none): 202 nM

GCGCCAUCGUGAGAUGGCGUAUAAACAUGAGGAUCACCCAUGUAGGAUAUCGAUUGCUUUGCAGUCGAGAAGGGCAUUAUAAGU [JL ENG3 3.75] (Eterna round: R96, puzzle: Exclusion NG 3)
apparent KD of MS2 coat protein (input ligand: FMN 200 uM): 29.2 nM | apparent KD of MS2 coat protein [4]: 19 nM | apparent KD of MS2 coat protein (input ligand: none): 28.4 nM

GACCCAAGUGUUAGGAUAUCCAGUCGUGGGACCAGGGAGAAGGAACAUGAGGAUCACCCAUGUAAAAUAGAAAC [Anti] (puzzle: Brourd's mod of Exclusion 4)
apparent KD of MS2 coat protein [2]: 137 nM | apparent KD of MS2 coat protein [1]: 22.3 nM | apparent KD of MS2 coat protein [3]: 22.3 nM

UGACAGUGAGGAUAUUAUCUGAGGGACAUGAGGAUCACCCAUGUGCACUCACGGGCCCAGUAAGAAGGCACGAGCU [EX5 B.23] (Eterna round: R97, puzzle: Exclusion 5)
apparent KD of MS2 coat protein (input ligand: FMN 200 uM): 18.1 nM | apparent KD of MS2 coat protein (input ligand: none): 18.8 nM

AGUAGAUCUACGCUUGCGUGGAUCUGCAAUGCAAGUGUUACAUGAGGAUCACCCAUGUCCUCAUUUGCUCGUCUUAG [JL turnoff v2 99.05] (puzzle: Sensor v3, turn-off variant 2)
apparent KD of MS2 coat protein [2]: 41.4 nM | apparent KD of MS2 coat protein [1]: 108 nM | apparent KD of MS2 coat protein [3]: 45.4 nM

AUAAAGCAAGCAUGGUCCCACAUGAGGAUCACCCAUGUGUUCGUCUUAUAGGCUGCUGAGGCUUUUGCCUCGGUGGC [LRO Sensor-off var1-07 loose mod of D91 from Mat747] (Eterna round: R97, puzzle: Sensor, turn-off variant 1)
apparent KD of MS2 coat protein (input ligand: FMN 200 uM): 155 nM | apparent KD of MS2 coat protein (input ligand: none): 179 nM

AGUCCUGCGGUGAGGAUAUAUUUGUAGCCAUUCAGGUAGAAGGCACUUGAGGAUCACCCAAGUAAAGAACCAAC [Releat] (Eterna round: R97, puzzle: Brourd's mod of Exclusion 4)
apparent KD of MS2 coat protein (input ligand: FMN 200 uM): 39 nM | apparent KD of MS2 coat protein (input ligand: none): 28 nM

CAUGCUUCGGCAUGUACAAGCUUUUUGCUCGUCUUAUUAACAUGAGGAUCACCCAUGUACAAGAGACCUCAUGUAUU [Sensor v3 - turn-off variant 2 - 11] (puzzle: Sensor v3, turn-off variant 2)
apparent KD of MS2 coat protein [2]: 293 nM | apparent KD of MS2 coat protein [1]: 22.9 nM | apparent KD of MS2 coat protein [3]: 338 nM

CAUGAUUGGCGAGGAUAUUGUUCUACAUGGCGACGAGAAGGCGCCUGUCACAUGAGGAUCACCCAUGUGAGUCUGGUGAAUGAG [Ex NG1 #84] (Eterna round: R96, puzzle: Exclusion NG 1)
apparent KD of MS2 coat protein (input ligand: FMN 200 uM): 27 nM | apparent KD of MS2 coat protein [4]: 16.6 nM | apparent KD of MS2 coat protein (input ligand: none): 22.2 nM

CCUUGACAUGAGGAUCACCCAUGUGAGGAUAUCCUGCGAGGAUCAAAAGAUCCUCGUGGGAGAAGGCAUAUGAA [Omei Ex1 A7] (Eterna round: R97, puzzle: Exclusion 1)
apparent KD of MS2 coat protein (input ligand: FMN 200 uM): 32.6 nM | apparent KD of MS2 coat protein (input ligand: none): 16.7 nM

AUAAUUUAAGUGAGGAUAUACCUAUGGAAACAUAGGUAGAAGGCACAUGAGGAUCACCCAUGUUCCUAUACAAA [Fiskers BMX 4 - 1] (puzzle: Brourd's mod of Exclusion 4)
apparent KD of MS2 coat protein [2]: 16.5 nM | apparent KD of MS2 coat protein [1]: 12.7 nM | apparent KD of MS2 coat protein [3]: 9.08 nM

GAGAAGGUAGGAUAUACGAAUAAAAAGGGUAGAAUAAGAACACAUGAGGAUCACCCAUGUAGAAGGACCAAGAG [Mat - Exclusion 2 - Mod of my Tesla design - D21] (puzzle: Exclusion 2)
apparent KD of MS2 coat protein [2]: 32.8 nM | apparent KD of MS2 coat protein [1]: 18.4 nM | apparent KD of MS2 coat protein [3]: 18.5 nM

GUAGAUCGAGUUAGGAUAUGAUUAAAAUCCGGAUAUCAGAAGGAACUUGAGGAUCACCCAAGUAUAGAUGAUUC [JR_BMEx4_Sub056] (Eterna round: R97, puzzle: Brourd's mod of Exclusion 4)
apparent KD of MS2 coat protein (input ligand: FMN 200 uM): 216 nM | apparent KD of MS2 coat protein (input ligand: none): 47.9 nM

GCUGCGCGAGGAUAUGCGGUUUGUGCUUUGGGCCCUGGCGUACAUGAGGAUCACCCAUGUAGAAGGCGUGUGGG [Apr-15 SS2-51] (puzzle: Exclusion 2)
apparent KD of MS2 coat protein [1]: 32.8 nM

CAGUACUGAGGAUAUACAUGAGGAUCACCCAUGUGUUCCUGCUAGGAAACUAGCAAAAGUAGAAGGCAGUACUG [salish99_ex3_r3_098x] (Eterna round: R96, puzzle: Exclusion 3)
apparent KD of MS2 coat protein (input ligand: FMN 200 uM): 516 nM | apparent KD of MS2 coat protein [4]: 26.1 nM | apparent KD of MS2 coat protein (input ligand: none): 27.5 nM

GACAUGAGGAUCACCCAUGUAAGGGAUGAACUUCUGGGUAGCUAGGAUAUGGCUACAAAUGUGGACCAGAAGGAGCAUACCCUA [Didianveon] (Eterna round: R96, puzzle: Exclusion NG 3)
apparent KD of MS2 coat protein (input ligand: FMN 200 uM): 13 nM | apparent KD of MS2 coat protein [4]: 12.7 nM | apparent KD of MS2 coat protein (input ligand: none): 16.7 nM

UAUUAACAGGCAAGAUCCCACAUGAGGAUCACCCAUGUGCUCGUCUUAUAAGGUACUGUGACGAAAGUCACGGUACC [Sensor 3, v1 - 82] (puzzle: Sensor v3, turn-off variant 1)
apparent KD of MS2 coat protein [2]: 23.2 nM | apparent KD of MS2 coat protein [1]: 589 nM | apparent KD of MS2 coat protein [3]: 29.4 nM
